Reference: patent US20050272636A1, “Treatment and diagnosis of a reproductive disorder by measuring or inhibiting interferon-gamma” (Adelaide Research & Innovation Pty Ltd., priority 2002, published 2005)

Columns and labels:
[1] = tested on: murine uterine epithelial cells; test: Effect of rIFNγ and rTGFβ on GM-CSF production in cultured uterine epithelial cells (Example 2); format: cell-based, mouse
Protocol: Uterine Epithelial Cell Cultures. Uterine epithelial cells prepared as previously described (Robertson et al., Biol Reprod 46:1069-1079 (1992)) were pooled from 4-6 estrous C57B1/6 or C57B1/6×Balb/c F1 mice and plated in 1 ml culture wells (Nunc, Roskilde, Germany) at 1-2×10^5 cells per ml in 500 μl of Dulbecco's modified Eagles medium containing 10% FCS, […] streptomycin sulphate and […] benzyl penicillin (DMEM +penicillin). After 4 h incubation at 37° C. in 5% CO2 to allow cell adherence, a further 500 μl of DMEM +penicillin, or DMEM +penicillin plus recombinant mouse IFNγ (rIFNγ) and/or recombinant human TGFβ1 (rTGFβ), were added. In some experiments, penicillin-free DMEM (DMEM −penicillin) was used throughout. Culture supernatants were collected and replaced with fresh medium at 16 hours, then collected again 24 hours later, at which time GM-CSF content was determined and adherent cells were quantified as previously described (Robertson et al., Biol Reprod 46:1069-1079 (1992)). All treatments were performed in duplicate or triplicate. rTGFβ and rIFNγ were obtained from R&D Systems, UK.
GM-CSF bioassay: GM-CSF was assayed using the GM-CSF dependant cell line FD 5/12, essentially as previously described (Robertson et al., Biol Reprod 46:1069-1079 (1992)). Cell proliferation was determined by pulsing with 1 μCi of [^3H]-thymidine per well for the last 6 h of the assay. The minimal detectable amount of GM-CSF was 20 pg/ml. The identity of the bioactivity in uterine epithelial cell cultures was confirmed using a goat polyclonal antibody to murine GM-CSF (DNAX, Palo Alto, Calif.) as previously described (Robertson et al., Biol Reprod 46:1069-1079 (1992)). GM-CSF production is expressed as ng GM-CSF/10^5 cells/24 h. Recombinant mouse GM-CSF was obtained from R&D Systems.

[2] = tested on: murine uterine epithelial cells; test: Effect of IFNγ on GM-CSF synthesis in murine uterine epithelial cells (Example 3); format: cell-based, mouse
Protocol: Uterine Epithelial Cell Cultures. Uterine epithelial cells prepared by pancreatin-trypsin digest as previously described (Robertson et al., (1992) Biol. Reprod. 46:1069-1079) were pooled from 4-6 estrous adult C57B1/6×CBA F1 female mice and plated in 1 ml culture wells (Nunc, Roskilde, Germany) at 1-2×10^5 cells per ml in 500 μl of RPMI containing 10% FCS and streptomycin (RPMI-FCS). Penicillin was omitted from culture media except where specified. After 4 h incubation at 37° C. in 5% CO2 to allow cell adherence, a further 500 μl of cytokines or antibodies in RPMI-FCS, or RPMI-FCS alone, were added. Cytokine treatments included recombinant mouse interferon-γ (rmIFNγ; R&D Systems), recombinant human transforming growth factor β1 (rhTGFβ1, R&D Systems), rhTGFβ2 (R&D Systems), rhTGFβ3 (OSI Pharmaceuticals). Antibody treatments included goat anti-mouse IFNγ receptor 1 (αIFNγR; R&D Systems AF1026) and hamster anti-mouse IFNγ (αIFNγ; R&D Systems MAB4851). Culture supernatants were collected and replaced with fresh complete RPMI-FCS alone at 16 hours, then collected again 24 hours later, at which time adherent cells were quantified as previously described (Robertson et al., (1992) Biol. Reprod. 46:1069-1079). The GM-CSF content of 24 h supernatants was determined by GM-CSF bioassay or immunoassay. All treatments were performed in duplicate or triplicate.
GM-CSF bioassay and immunoassay: Bioactive GM-CSF was assayed using the GM-CSF dependant cell line FD 5/12, essentially as previously described (Robertson et al., (1992) Biol. Reprod. 46:1069-1079). Cell proliferation was determined by the addition of 1 μCi of [^3H]-thymidine per well for the last 6 h of the assay. […] GM-CSF immunoactivity was in some experiments measured by commercial mouse GM-CSF specific ELISA (R & D Systems) according to the manufacturer's instructions.

[3] = tested on: uterine luminal fluid content of GM-CSF; test: Effect of IFN-γ treatment on GM-CSF content of uterine luminal fluids in mice (Example 7); format: in vivo; details: 5 ng or 20 ng transcervical on day 1 of pregnancy; fluids 7 hrs later; p=0.03 versus PBS control, treatment groups combined
Protocol: Mice were housed under specific pathogen-free conditions at the University of Adelaide Medical School Animal House on a 12:12 light-dark cycle, and were administered food and water ad libitum. Adult C57B1/6×CBA F1 females (7-10 weeks old) were caged with proven fertile Balb/c males for natural mating. The day of sighting a vaginal plug was nominated day 1 of pregnancy. Mice were randomly allocated to one of three groups and administered transcervical treatments of either 5 ng or 20 ng recombinant mouse IFN-γ (rmIFN-γ; R&D Systems) in 30 μl PBS containing 0.1% bovine serum albumin (PBS-BSA), or PBS-BSA alone (PBS control), at 0900 h on day 1. Treatments were delivered directly into the uterine lumen with the aid of a tom-cat catheter (Sovereign, St Louis Mo.), after removal of vaginal plugs using forceps to allow transcervical access. Mice were sacrificed 7 hrs later at 1600 h on day 1, and uterine luminal fluids were flushed in 1 ml PBS-BSA with a syringe and 26 gauge needle.
GM-CSF immunoactivity in uterine luminal fluids was measured by commercial mouse GM-CSF specific ELISA (R & D Systems) according to the manufacturer's instructions. Data are given as GM-CSF content in pg/ml uterine luminal fluid.

B1: rIFNγ: recombinant mouse IFNγ (R&D Systems) (protein, UniProt P01580 23-155, looked up)
Interferon gamma: HGTVIESLESLNNYFNSSGIDVEEKSLFLDIWRNWQKDGDMKILQSQIISFYLRLFEVLKDNQAISNNISVIESHLITTFFSNSKAKKDAFMSIAKFEVNNPQVQRQAFNELIRVVHQLLPESSLRKRKRSRC
rIFNγ concentrations at which an inhibitory effect was not seen ([1]; DMEM +penicillin): less than 150 pg/ml
rIFN-γ concentration eliciting maximal decrease in GM-CSF production ([1]; DMEM +penicillin, dose-dependent decrease in each of three experiments): ≥ 2.5 ng/mL
rIFNγ concentration giving maximal decrease in GM-CSF production ([1]; DMEM -penicillin, three experiments): ≥ 2.5 ng/mL
rIFNγ concentration at which inhibitory effect was still observed ([1]; absence of penicillin): 2 pg/mL
lowest effective concentration of rIFNγ ([1]; in the presence of 0.5 ng/ml rTGFβ): 39 pg/mL
lowest effective inhibitory concentration of rIFNγ ([1]; in the presence of 5 ng/ml of rTGFβ): 2.5 ng/mL
rIFNγ concentration with maximal inhibition of rTGFβ induction of GM-CSF synthesis ([1]; rTGFβ-stimulated cells, DMEM +penicillin): ≥ 2.5 ng/mL
IFNγ concentration giving significant inhibition (GM-CSF synthesis <50% of control values) [2]: > 150 pg/mL
IFNγ concentration inhibiting GM-CSF synthesis (<50% of control values) ([2]; absence of penicillin): ≥ 9.8 pg/mL
IFNγ concentration at which inhibition of GM-CSF synthesis was evident ([2]; more than six experiments, penicillin omitted): ≥ 40 pg/mL
effect on uterine luminal fluid content of GM-CSF [3]: reduce uterine luminal fluid content of GM-CSF
